Assay results reported in paper PMC10201421.

Molecular target: CTD (nucleocapsid C-terminal RNA binding domain) (SARS-CoV-2, UniProt P0DTC9 247-364)
Test: ITC

GGUUCACCGAGGCCACGCGGAGUACGAUCGAGUGUACAGUGAACC (structured_RNA) [s2m-CoV-2]
Kd: 600 ± 200 nM
